Numbering of substitutions follows the chain as printed.
T1: EsCas13d, nuclease-dead (Eubacterium siraeum, UniProt B0MS50, R295A;H300A;R849A;H854A)
T1 sequence: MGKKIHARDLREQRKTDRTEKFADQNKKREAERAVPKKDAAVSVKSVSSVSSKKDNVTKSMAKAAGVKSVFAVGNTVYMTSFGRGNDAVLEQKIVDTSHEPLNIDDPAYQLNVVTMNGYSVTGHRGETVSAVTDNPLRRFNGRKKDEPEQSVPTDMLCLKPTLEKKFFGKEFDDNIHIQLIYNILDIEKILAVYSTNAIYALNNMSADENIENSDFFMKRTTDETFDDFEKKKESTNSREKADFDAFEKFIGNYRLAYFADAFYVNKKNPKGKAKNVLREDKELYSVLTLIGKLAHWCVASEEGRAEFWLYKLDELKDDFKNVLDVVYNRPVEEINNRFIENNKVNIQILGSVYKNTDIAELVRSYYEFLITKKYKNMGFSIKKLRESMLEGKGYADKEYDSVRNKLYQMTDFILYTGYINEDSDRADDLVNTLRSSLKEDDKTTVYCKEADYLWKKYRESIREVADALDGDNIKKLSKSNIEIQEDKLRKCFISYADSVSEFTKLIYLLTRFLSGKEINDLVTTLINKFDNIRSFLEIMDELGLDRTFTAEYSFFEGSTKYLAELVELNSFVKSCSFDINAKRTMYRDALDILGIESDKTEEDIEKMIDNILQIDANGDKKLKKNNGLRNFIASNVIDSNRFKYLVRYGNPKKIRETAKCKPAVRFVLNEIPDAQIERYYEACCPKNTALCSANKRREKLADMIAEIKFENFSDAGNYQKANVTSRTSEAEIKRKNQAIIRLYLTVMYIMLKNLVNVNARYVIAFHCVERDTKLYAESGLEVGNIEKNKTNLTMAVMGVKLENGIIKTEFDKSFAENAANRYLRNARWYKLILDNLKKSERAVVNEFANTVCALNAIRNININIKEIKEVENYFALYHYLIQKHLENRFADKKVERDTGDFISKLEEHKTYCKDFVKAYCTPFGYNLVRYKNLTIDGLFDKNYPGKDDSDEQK

B1: target 2 MT 5'PFS GCC 3'PFS UCA (mixed)
RNA 1: CACCCGUGCAAAAUUGCAGGGGUCUAAAACCUUCUCCAAAUUGUUUCAUCCU
RNA 2: GGGAAUGGAUCCACAUCUACGAAUUCGCCAGGAUGAAACAAUUUGGAGAAGUCAAGAUCGGAAGAGCACACGU
B2: target 2 MT 5'PFS UAG 3'PFS UGA (mixed)
RNA 1: B1 RNA 1
RNA 2: B1 RNA 2 with G27U, C28A, C29G, C53G
B3: target 2 MT 5'PFS GAA 3'PFS AUG (mixed)
RNA 1: B1 RNA 1
RNA 2: B1 RNA 2 with C28A, C29A, U52A, C53U, A54G
B4: target 2 MT 5'PFS UUU 3'PFS UAA (mixed)
RNA 1: B1 RNA 1
RNA 2: B1 RNA 2 with G27U, C28U, C29U, C53A
B5: target 2 MT 5'PFS ACU 3'PFS CUC (mixed)
RNA 1: B1 RNA 1
RNA 2: B1 RNA 2 with G27A, C29U, U52C, C53U, A54C
B6: target 2 MT 5'PFS GAA 3'PFS AUC (mixed)
RNA 1: B1 RNA 1
RNA 2: B1 RNA 2 with C28A, C29A, U52A, C53U, A54C
B7: target 2 MT 5'PFS GAA 3'PFS AUA (mixed)
RNA 1: B1 RNA 1
RNA 2: B1 RNA 2 with C28A, C29A, U52A, C53U
B8: target 2 MT 5'PFS ACU 3'PFS CUG (mixed)
RNA 1: B1 RNA 1
RNA 2: B1 RNA 2 with G27A, C29U, U52C, C53U, A54G
B9: target 2 MT 5'PFS ACU 3'PFS CUA (mixed)
RNA 1: B1 RNA 1
RNA 2: B1 RNA 2 with G27A, C29U, U52C, C53U
B10: target 2 MT 5'PFS AAA 3'PFS CGC (mixed)
RNA 1: B1 RNA 1
RNA 2: B1 RNA 2 with G27A, C28A, C29A, U52C, C53G, A54C
B11: target 2 MT 5'PFS UUG 3'PFS AGG (mixed)
RNA 1: B1 RNA 1
RNA 2: B1 RNA 2 with G27U, C28U, C29G, U52A, C53G, A54G
B12: target 2 MT 5'PFS UUU 3'PFS UAU (mixed)
RNA 1: B1 RNA 1
RNA 2: B1 RNA 2 with G27U, C28U, C29U, C53A, A54U
B13: target 2 MT 5'PFS AAA 3'PFS CGA (mixed)
RNA 1: B1 RNA 1
RNA 2: B1 RNA 2 with G27A, C28A, C29A, U52C, C53G
B14: target 2 MT 5'PFS UUU 3'PFS UAC (mixed)
RNA 1: B1 RNA 1
RNA 2: B1 RNA 2 with G27U, C28U, C29U, C53A, A54C
B15: target 2 MT 5'PFS GUA 3'PFS UGC (mixed)
RNA 1: B1 RNA 1
RNA 2: B1 RNA 2 with C28U, C29A, C53G, A54C
B16: target 1 insG 3' of 4,insC 3' of 1 (mixed)
RNA 1: CACCCGUGCAAAAAUGCAGGGGUCUAAAACUGAGCGGAUAACCUCUCUAUGG
RNA 2: GGGAAUGGAUCCACAUCUACGAAUUCGUACCAUAGAGAGGUUAUCCGCGUCACCCGAGAUCGGAAGAGCACACGU
B17: target 1 insA 3' of 17,insU 3' of 9 (mixed)
RNA 1: B16 RNA 1
RNA 2: GGGAAUGGAUCCACAUCUACGAAUUCGUACCAUAGAAGAGGUUAUUCCGCUCACCGAGAUCGGAAGAGCACACGU

Target: T1, EsCas13d, nuclease-dead
Assay: crRNA (strand 1, pre-loaded); Mg2+; 40 mM Tris-HCl pH 7.5, 150 mM NaCl, 6 mM MgCl2, 1 mM DTT, 0.1% Tween-20, 0.2 mg/ml BSA; 25 C; 10 min per concentration, then washed
Conditions: tags: His6-TwinStrep-SUMO cleaved; N-terminal SNAP kept (SNAP-Surface 488); label: 3' end held by stalled T7 RNA polymerase

Binder	Kd [nM]
B1	17 ± 4
B2	4.1 ± 0.8
B3	8.3 ± 1.1
B4	10.9 ± 1.7
B5	5.4 ± 1.4
B6	10.2 ± 1.6
B7	8.1 ± 1.4
B8	6 ± 0.7
B9	3.5 ± 0.5
B10	3.3 ± 1
B11	14.1 ± 1.5
B12	8.4 ± 0.9
B13	3.4 ± 0.8
B14	9.1 ± 1.2
B15	11.4 ± 1.5
B16	12.6 ± 1
B17	18.6 ± 3.3
